Results reported in PMC6150732.

Target: encapsulin from Brevibacterium linens (Brevibacterium linens)
Test: cryo-EM structure

## encapsulin from Brevibacterium linens (natural protein)
  stoichiometry N (subunits per particle): 60

## dye-decolorizing peroxidase (DyP) from Brevibacterium linens (enzyme)
  stoichiometry N (DyP hexamer per encapsulin particle): 1
